Changes are numbered by the printed parent chain.

Consider 30 molecules from US20210380703A1 (RIGEL PHARMACEUTICALS, published 2021).

The chains are these.
B1: 374_A03 (antibody, V domains shown)
VH: EVQLLESGGGLVQPGGSLRLSCAASGFTFDSYSMNWVRQAPGKGLEWVSNINYNGGYTSYADSVKGRFTISRDNSKNTLYLQMNSLRAEDTAVYYCARSATWHDTHLDYWGQGTLVTVSS
VL: DIQMTQSPSSLSASVGDRVTITCRASQSILTYLNWYQQKPGKAPKLLIYAATSRASGVPSRFSGSGSGTDFTLTISSLQPEDFATYYCQQSYDNPLTFGGGTKVEIK
notes: VH and VL only
B2: 365_D06 (antibody, V domains shown)
VH: B1 VH
VL: B1 VL with L33V, D93S, N94L
notes: VH and VL only
B3: 366_C03 (antibody, V domains shown)
VH: B1 VH with S33G, S59G
VL: B1 VL with T31S, L47V, D93S
notes: VH and VL only
B4: 365_G02 (antibody, V domains shown)
VH: B1 VH with D30S, S31D, G55S, T58K, S59G
VL: B1 VL with L30V, L47V, A51V, R54L, A55H, D93E, N94L
notes: VH and VL only
B5: 365_A04 (antibody, V domains shown)
VH: B1 VH with D30S, S31D, N50G, G55S
VL: B1 VL with L30V, T31S, L33V, L47V, R54L, D93S, N94T
notes: VH and VL only
B6: 365_H09 (antibody, V domains shown)
VH: B1 VH with D30S, S33G, N50S, G55S, T58K
VL: not shown
notes: VH and VL only
B7: 365_E08 (antibody, V domains shown)
VH: B1 VH with N50G, G55S
VL: B1 VL with L30I, T31S, L33V, L47V, R54L, N94L
notes: VH and VL only
B8: 365_A02 (antibody, V domains shown)
VH: B1 VH
VL: B1 VL with L33V, D93N, N94S
notes: VH and VL only
B9: 365_E03 (antibody, V domains shown)
VH: B1 VH with S59G
VL: B1 VL with L33V, R54L, A55H, Y92D, D93E, N94R
notes: VH and VL only
B10: 365_H04 (antibody, V domains shown)
VH: B1 VH with D30S, S31D, S33G, N50G, G55S, T58K
VL: B1 VL with L33V, L47V, D93E, N94S
notes: VH and VL only
B11: 373_D04 (antibody, V domains shown)
VH: B1 VH with N50G, G55S, T58K, S59G, T101N, H106A
VL: B1 VL with T31S, A55H, N94S
B12: 374_A07 (antibody, V domains shown)
VH: B1 VH with D30S, N50G, G55S, T58K, S59G, T101N, H106A
VL: B1 VL with T31S, L33V, A51V, N94L
B13: 374_C06 (antibody, V domains shown)
VH: B1 VH with S31D, N50S, G55S, T58K, S59G, T101N, H106A
VL: B1 VL with L33V, D93N, N94S
B14: 373_E12 (antibody, V domains shown)
VH: B1 VH with D30S, S49A, S59G, T101N, H106A
VL: B1 VL with T31S, L33V, L47V, N94T
B15: 374_E01 (antibody, V domains shown)
VH: B1 VH with D30S, S33G, S49A, N50G, T101N, H106A
VL: B1 VL with L30S, T31S, L33V, D93S, N94T
B16: 373_D10 (antibody, V domains shown)
VH: B1 VH with G55S, T58K, S59G, T101N, H106A
VL: B1 VL with T31S, L33V, N94L
B17: 373_E05 (antibody, V domains shown)
VH: B1 VH with S33G, T101N, H106A
VL: B1 VL with T31S, L33V, A51V, N94L
B18: 374_D01 (antibody, V domains shown)
VH: B1 VH with N50G, G55S, T58K, S59G, T101N, H106A
VL: B1 VL with L30I, L33V, R54L, D93S, N94S
B19: 373_G12 (antibody, V domains shown)
VH: B1 VH with D30S, T101N, H106A
VL: B1 VL with T31S, A51T, R54L, D93N, N94S
B20: 373_E07 (antibody, V domains shown)
VH: B1 VH with D30S, S33G, S49A, T101N, H106A
VL: B1 VL with L33V, R54L, D93E, N94T
B21: 373_E01 (antibody, V domains shown)
VH: B1 VH with D30S, S33G, N50G, T58K, S59G, T101N, H106A
VL: B1 VL with L30V, T31S, L33V, A55H, D93N
B22: 373_H01 (antibody, V domains shown)
VH: B1 VH with S49A, S59G, T101N, H106A
VL: B1 VL with T31S, L47V
B23: 374_C03 (antibody, V domains shown)
VH: B1 VH with N50G, G55S, T101N, H106A
VL: B1 VL with N94S
B24: 374_B12 (antibody, V domains shown)
VH: B1 VH with S49A, N50G, S59G, T101N
VL: B1 VL with L30S, T31S, L47V
B25: 373_G10 (antibody, V domains shown)
VH: B1 VH with D30S, S31D, S33G, T58K, T101N, H106A
VL: B1 VL with L30V, T31S, L33V, N94L
B26: 373_H05 (antibody, V domains shown)
VH: B1 VH with D30S, S31D, S49A, T58K, S59G, T101N, H106A
VL: B1 VL with L33V, L47V, D93E, N94T
B27: 374_B04 (antibody, V domains shown)
VH: B1 VH with D30S, G55S, S59G, T101N, H106A
VL: B1 VL with L30V, T31S, A51V, D93E, N94S
B28: 374_D08 (antibody, V domains shown)
VH: B1 VH with S33G, N50G, G55S, S59G, T101N
VL: B1 VL with A55H, D93E, N94S
B29: 374_B06 (antibody, V domains shown)
VH: B1 VH with S49A, N50G, G55S, T58K, S59G, T101N
VL: B1 VL with L33V, N94T
B30: 373_D05 (antibody, V domains shown)
VH: B1 VH with D30S, N50G, G55S, T58K, S59G, T101N, H106A
VL: B1 VL with T31S, L47V, N94S
Also: test concentration or dose not given here.

T4 sequence (P27037 20-135 limits assumed): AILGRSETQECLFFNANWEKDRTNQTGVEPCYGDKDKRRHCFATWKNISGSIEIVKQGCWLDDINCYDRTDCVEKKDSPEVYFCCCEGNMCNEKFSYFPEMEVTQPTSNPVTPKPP

One assay addresses T1, biotinylated goat anti-human kappa light chain.
T1 construct: Positive control of the ELISA
As to the kind of experiment: ELISA, positive control. The gist of the method:
(§1)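 Binding signal was read by ELISA after ACVR2A-specific monoclonal antibodies were tested against human ACVR2A and mouse ACVR2A, with human Fc as the negative control.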
(An ELISA detects its analyte on a solid surface through an enzyme-linked reagent.)
Regarding B1, the optical density came to 3.05 OD.

In turn, B2 showed an optical density of 3.42 OD.

On to B3, for which the optical density came to 3.55 OD.

B4 came in with an optical density of 3.45 OD.

Consider B5, for which the optical density is 3.28 OD.

For the molecule B6, the optical density was found to be 3.53 OD.

As to B7, the optical density was determined as 3.33 OD.

B8: the optical density was 3.49 OD.

Molecule B9 gave an optical density of 3.33 OD.

With B10, the optical density was 3.5 OD.

The next assay concerns the target T2, Goat anti-Human Kappa.
T2 construct: Positive control of the ELISA; also called biotinylated goat anti-human kappa light chain
As to the kind of experiment: ELISA, positive control. The gist of the method: as §1
For B11, the optical density is 3.15 OD.

B12 returned an optical density of 3.07 OD.

On to B13, for which the optical density is 3.24 OD.

The molecule B14 had an optical density of 3.12 OD.

With B15, the optical density was 3.04 OD.

Molecule B16 showed an optical density of 3.11 OD.

On to B17, for which the optical density came out at 3.24 OD.

The molecule B18 displayed an optical density of 2.94 OD.

As for B19, the optical density stood at 3.26 OD.

Consider B20, for which the optical density came to 3.23 OD.

B21 gave an optical density of 2.99 OD.

B22 registered an optical density of 3.12 OD.

B23 gave an optical density of 3.06 OD.

As for B24, the optical density was 3.05 OD.

Regarding B25, the optical density turned out to be 3.26 OD.

Consider B26, for which the optical density turned out to be 3.22 OD.

As for B27, the optical density turned out to be 3.3 OD.

B28 showed an optical density of 3.02 OD.

B29 had an optical density of 3.08 OD.

Turning to B30, the optical density stood at 3.25 OD.

The target of the next assay is T3, Human ACVR2A (human, UniProt P27037 20-135, limits assumed).
T3 construct: also called activin receptor, type II A
T3 sequence (P27037 20-135 limits assumed): as above
Nature of the assay: ELISA. The gist of the method: as §1
As to B11, the optical density stood at 3.68 OD.

For the molecule B12, the optical density came to 3.62 OD.

The molecule B13 returned an optical density of 3.71 OD.

Regarding B14, the optical density turned out to be 3.63 OD.

The molecule B15 yielded an optical density of 3.24 OD.

B16: the optical density is 3.61 OD.

The molecule B17 returned an optical density of 3.54 OD.

Molecule B18 yielded an optical density of 3.24 OD.

B19 came in with an optical density of 3.47 OD.

Take B20: the optical density is 3.48 OD.

B21 displayed an optical density of 2.35 OD.

Consider B22, for which the optical density is 3.1 OD.

On to B23, for which the optical density was 3.58 OD.

Molecule B24 displayed an optical density of 3.49 OD.

Regarding B25, the optical density is 3.54 OD.

For the molecule B26, the optical density turned out to be 3.29 OD.

As to B27, the optical density was determined as 3.67 OD.

For B28, the optical density was 3.5 OD.

Take B29: the optical density worked out at 3.48 OD.

The molecule B30 showed an optical density of 3.68 OD.

A further assay deals with mouse ACVR2A (mouse, UniProt P27038 20-135, limits assumed). Nature of the assay: ELISA. The gist of the method: as §1
Chain of mouse ACVR2A (P27038 20-135 limits assumed): as the sequence (P27037 20-135 limits assumed) above, with K20R, V73I counted along it
Turning to B1, the optical density amounted to 3.71 OD.

B2 showed an optical density of 3.08 OD.

B3: the optical density is 2.74 OD.

Consider B4, for which the optical density came to 2.15 OD.

In turn, B5 registered an optical density of 1.41 OD.

As to B6, the optical density came to 2.56 OD.

On to B7, for which the optical density is 2.58 OD.

For the molecule B8, the optical density is 2.96 OD.

In turn, B9 came in with an optical density of 2.69 OD.

The molecule B10 showed an optical density of 2.59 OD.

The target in the next assay is Mouse ACVR2A (mouse, UniProt P27038 20-135, limits assumed). Nature of the assay: ELISA. The gist of the method: as §1
Chain of Mouse ACVR2A (P27038 20-135 limits assumed): as the sequence (P27037 20-135 limits assumed) above, with K20R, V73I counted along it
For B11, the optical density was determined as 3.65 OD.

In turn, B12 showed an optical density of 3.71 OD.

B13 returned an optical density of 3.71 OD.

B14 showed an optical density of 3.33 OD.

B15: the optical density came to 3.56 OD.

Molecule B16 came in with an optical density of 3.61 OD.

Molecule B17 gave an optical density of 3.59 OD.

For B18, the optical density stood at 3.58 OD.

Turning to B19, the optical density was 3.29 OD.

B20 gave an optical density of 3.54 OD.

Consider B21, for which the optical density turned out to be 2.56 OD.

Turning to B22, the optical density came to 3.28 OD.

In turn, B23 displayed an optical density of 3.61 OD.

B24 displayed an optical density of 3.33 OD.

Turning to B25, the optical density worked out at 3.56 OD.

Take B26: the optical density worked out at 3.29 OD.

Turning to B27, the optical density was 3.64 OD.

B28: the optical density was found to be 3.59 OD.

On to B29, for which the optical density stood at 3.6 OD.

B30 came in with an optical density of 3.73 OD.

A further assay concerns the target T4, human ACVR2A (human, UniProt P27037 20-135, limits assumed).
T4 construct: also called activin receptor, type II A
Nature of the assay: ELISA. The gist of the method: as §1
As to B1, the optical density turned out to be 3.58 OD.

On to B2, for which the optical density was determined as 2.95 OD.

Molecule B3 registered an optical density of 2.41 OD.

With B4, the optical density was determined as 1.98 OD.

Turning to B5, the optical density is 1.49 OD.

Turning to B6, the optical density was 2.38 OD.

Take B7: the optical density came to 2.59 OD.

With B8, the optical density was 3.03 OD.

B9 registered an optical density of 2.56 OD.

For B10, the optical density was determined as 2.47 OD.
